Measurements as given in patent publication US20130202598.

Key:
[1] = tested on: PE-DTA-mutated cleavage site-defensin
[2] = tested on: PE-DTA-cleavage site-defensin (P6-P4' NS5A/B site of genotype 1b/1a)

recombinant MBP-scNS3 fusion
in vitro cleavage by NS3 (immunoblot with anti-PE antibodies) [1]: resistant to cleavage by NS3 | in vitro cleavage by NS3 (immunoblot with anti-PE antibodies) [2]: complete cleavage of the chimeric toxin
